Here are results for 1 substance from publication PMC4678016.

In this test the target is capping protein (CP), purified, as used in pyrene-actin polymerization assays. In words: pyrene-actin seeded polymerization assay.

pKd: −log10 of the molar value.

For orientation: pKd means the negative decadic logarithm of the Kd, by convention in mol/L. Low values mean a high Kd, high ones a low Kd. For the substance “CARMIL2-CBR (CP-binding region of human CARMIL2b, Pro-961 to Arg-1072) (from UniProt Q6F5E8-2 961-1072) (domain or fragment)”, the pKd was 8.54.
